As a reminder, the stoichiometry N is a count of units in the complex or per binding partner.

The results in this text go back to article PMC10838023 (Molecular microbiology, 2023).

For one data set, the target named is T1, GfcR-StrepII (Haloferax volcanii (expressed in H26), UniProt Q8NKQ2 1-210).
T1 sequence: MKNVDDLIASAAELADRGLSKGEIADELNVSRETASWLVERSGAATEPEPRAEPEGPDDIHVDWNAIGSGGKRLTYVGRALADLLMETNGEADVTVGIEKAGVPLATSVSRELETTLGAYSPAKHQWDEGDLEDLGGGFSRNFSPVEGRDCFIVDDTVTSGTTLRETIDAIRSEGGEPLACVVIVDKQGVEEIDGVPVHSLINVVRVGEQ
In words: EMSA. (In general: In EMSA bound probe runs differently from free probe, usually more slowly.)

The data set “SEC” deals with the molecule itself. In words: SEC. In general terms: Size exclusion chromatography separates by hydrodynamic size, large species first.

B1: PptfC (dsDNA)
DNA 1: GGACCTCGAAGACGTGCTGACGAACGAAACGCACGTCGAGGTGACGACCGTTCGGACCCGGTGACTCTCGGATGAACGTTTGTTAACGACCGAAACACGCAGTAACGTTCATATTCGAAAGGGTTTTTGAGCACATTTGCGTACGTTCTTTCGTAGGGGTGGCAACACTATG
DNA 2: CATAGTGTTGCCACCCCTACGAAAGAACGTACGCAAATGTGCTCAAAAACCCTTTCGAATATGAACGTTACTGCGTGTTTCGGTCGTTAACAAACGTTCATCCGAGAGTCACCGGGTCCGAACGGTCGTCACCTCGACGTGCGTTTCGTTCGTCAGCACGTCTTCGAGGTCC
As to B1, the binding result with GfcR-StrepII is reported as “binds”.

B2: GfcR-StrepII (glucose and fructose catabolism regulator GfcR of Haloferax volcanii with a C-terminal StrepII tag) (natural protein, UniProt Q8NKQ2 1-210, looked up)
chain: T1 sequence
With B2, the “stoichiometry N” value in “SEC” was 4.
